Measurements from article PMC8041205, “TcpC inhibits toll-like receptor signaling pathway by serving as an E3 ubiquitin ligase that promotes degradation of myeloid differentiation factor 88” (PLoS Pathogens, 2021).

Assays:
[1] = biological target: T1, recombinant TcpC (Toll/interleukin-1 receptor domain-containing protein encoded by E. coli) (uropathogenic E. coli (UPEC), UniProt A0A0H2V8B5 1-307); assay: ITC; 1 uM rTcpC in PBS in the titration pool, 0.1 uM UBE2D1 or rMyD88 in PBS in the sample pool; VP-ITC microcalorimeter; conditions: both partners purified
T1 construct: TcpC, TIR domain-containing virulence factor of uropathogenic E. coli; called 'the full length rTcpC protein'; predicted TIR domain 171-304 aa; Only the vector pET42a is named; Depending on the cloning sites it may also add an N-terminal GST and S-tag; CFT073 is surmised; also called rTcpC; rTcpC prototype; source: E. coli BL21DE3 transformed with pET42a-tcpc, purified, LPS-free

[2] = biological target: T1, recombinant TcpC (Toll/interleukin-1 …); assay: SPR; 1 nM UBE2D1 cross-linked on an activated CM5 chip; 0.05-0.8 nM rTcpC in PBS flowed over; Biacore T200; conditions: both partners purified

B1: UBE2D1 (R&D) (enzyme)
chain: not shown
notes: UBE2D1 bought from R&D; No catalogue number is printed, so the species and construct of the bought protein are unknown; source: bought: R&D
Question: Which Kd [1] does the source give for B1 here?
Answer: 763 nM

Question: What about the Kd [2] of the same binder?
Answer: 17.2 nM
